From the FLAb antibody collection (doi:10.7554/elife.23156)

B1: scFv; the commonest letter at each place (parent)
chain 1: EVKLDETGGGLVQPGRPMKLSCVASGFTFSDYWMNWVRQSPEKGLEWVAQIRNKPYNYETYYSDSVKGRFTISRDDSKSSVYLQMNNLRVEDMGIYYCTGSYYGMDYWGQGTSVTVS
chain 2: DVVMTQTPLSLPVSLGDQASISCRSSQSLVHSNGNTYLRWYLQKPGQSPKVLIYKVSNRFSGVPDRFSGSGSGTDFTLKISRVEAEDLGVYFCSQSTHVPWTFGGGTKLEIK

Key:
[1] = variants of: B1; assay: Kd (Tite-Seq); conditions: with fluorescein; format: scFv 4-4-20, heavy + light
[2] = variants of: B1; assay: yeast surface expression (ratio to wild type); higher = more expressed; conditions: format: scFv 4-4-20, heavy + light

Row | Kd [1] | Variant | yeast surface expression [2]
1 | ≥ 10 µM | chain 1 Y103M D106G | 0.479
2 | ≥ 10 µM | chain 1 T28M V37K | 0.399
3 | ≥ 10 µM | chain 1 Y103M G109W | 0.221
4 | ≥ 10 µM | chain 1 T28C W33L | 0.742
5 | ≥ 10 µM | chain 1 W33I N35W | 0.803
6 | ≥ 10 µM | chain 1 W33G W36I | 0.622
7 | ≥ 10 µM | chain 1 Y102D D106T | 1.12
8 | 0.0391 µM | chain 1 Y107N G109S | 0.836
9 | ≥ 10 µM | chain 1 S101V Y103V | 0.316
10 | ≥ 10 µM | chain 1 S101W G109T | 0.212
11 | ≥ 10 µM | chain 1 T28V N35H | 0.671
12 | 0.0372 µM | chain 1 T28K F29C | 0.906
13 | ≥ 10 µM | chain 1 Y32C V37Q | 0.692
14 | ≥ 10 µM | chain 1 W36M V37P | 0.36
15 | 3.2 µM | chain 1 W108P G109A | 0.41
16 | ≥ 10 µM | chain 1 Y102G G104H | 1.06
17 | ≥ 10 µM | chain 1 Y102G G104L | 0.816
18 | 0.000589 µM | chain 1 T28F V37P | 0.417
19 | ≥ 10 µM | chain 1 Y107M G109K | 0.42
20 | ≥ 10 µM | chain 1 Y32H N35E | 0.518
21 | 0.0657 µM | chain 1 W33M V37E | 0.701
22 | ≥ 10 µM | chain 1 Y103P D106H | 0.565
23 | ≥ 10 µM | chain 1 Y32P M34N | 0.503
24 | 1.91 µM | chain 1 Y107L | 1.01
25 | ≥ 10 µM | chain 1 S101T G104F | 0.437
26 | ≥ 10 µM | chain 1 W33R V37W | 0.543
27 | ≥ 10 µM | chain 1 Y32K M34F W36H | 0.381
28 | 0.0113 µM | chain 1 Y32N V37G | 2.76

Row | Kd [1] | Variant | yeast surface expression [2]
29 | ≥ 10 µM | chain 1 Y102C G104H | 0.609
30 | ≥ 10 µM | chain 1 Y102C G104D | 0.919
31 | ≥ 10 µM | chain 1 Y32K V37R | 1.18
32 | ≥ 10 µM | chain 1 Y32K V37S | 0.852
33 | ≥ 10 µM | chain 1 S101T W108C | 0.471
34 | ≥ 10 µM | chain 1 Y32W W33Y | 0.945
35 | 3.94 µM | chain 1 T28D M34G | 0.865
36 | ≥ 10 µM | chain 1 W33Q W36T | 0.706
37 | 0.55 µM | chain 1 Y103L Y107S | 0.878
38 | ≥ 10 µM | chain 1 W108L G109I | 0.203
39 | ≥ 10 µM | chain 1 W33A | 0.883
40 | 0.0015 µM | chain 1 T28A F29Y | 1.06
41 | 1.63 µM | chain 1 Y32G | 0.961
42 | 0.205 µM | chain 1 T28D V37G | 1.16
43 | 0.0125 µM | chain 1 Y102K M105Y | 0.955
44 | 0.00493 µM | chain 1 Y103C | 0.775
45 | 0.0199 µM | chain 1 Y103Q | 1.33
46 | 0.0318 µM | chain 1 T28I F29L | 0.851
47 | 0.000846 µM | chain 1 Y102E W108I | 0.763
48 | ≥ 10 µM | chain 1 Y102W Y107G | 0.493
49 | 0.00325 µM | chain 1 T28Y | 0.919
50 | 0.00158 µM | chain 1 T28A | 1.01
51 | ≥ 10 µM | chain 1 Y32K W33I | 0.763
52 | 0.0624 µM | chain 1 T28S F29A | 0.957
53 | ≥ 10 µM | chain 1 Y102V D106I | 0.421
54 | ≥ 10 µM | chain 1 T28Q M34P | 0.676
55 | ≥ 10 µM | chain 1 Y103D G109H | 0.441

The remaining lines, values behind:

Row | Variant | Kd [1] | yeast surface expression [2]
56 | chain 1 G100M G109W | ≥ 10 µM | 0.185
57 | chain 1 G100E Y107H | ≥ 10 µM | 0.501
58 | chain 1 N35M V37Y | ≥ 10 µM | 0.798
59 | chain 1 S101E W108K | ≥ 10 µM | 0.375
60 | chain 1 G104C M105I | ≥ 10 µM | 0.349
61 | chain 1 M105V W108H | ≥ 10 µM | 0.493
62 | chain 1 D106A W108M | ≥ 10 µM | 0.713
63 | chain 1 F29Q V37M | 0.00239 µM | 1.09
64 | chain 1 S30C W33L | ≥ 10 µM | 0.696
65 | chain 1 F29L S30T V37W | ≥ 10 µM | 0.536
66 | chain 1 N35H W36S | ≥ 10 µM | 0.692
67 | chain 1 G100Y G109W | ≥ 10 µM | 0.26
68 | chain 1 G100D M105W W108Y | ≥ 10 µM | 0.168
69 | chain 1 S101R Y103K | ≥ 10 µM | 0.984
70 | chain 1 F29C W33Q | ≥ 10 µM | 0.687
71 | chain 1 G100P D106M | ≥ 10 µM | 0.537
72 | chain 1 S101L Y103Q | ≥ 10 µM | 0.786
73 | chain 1 G100A W108Y | ≤ 0.000316 µM | 0.892
74 | chain 1 G100R Y107P W108D | ≥ 10 µM | 0.43
75 | chain 1 G104L W108G | ≥ 10 µM | 0.178
76 | chain 1 G100D G109H | ≥ 10 µM | 0.602

Row | Variant | Kd [1] | yeast surface expression [2]
77 | chain 1 M34I W36M | 0.712 µM | 0.783
78 | chain 1 D31S W36I | ≥ 10 µM | 0.724
79 | chain 1 F29T S30C | 0.0391 µM | 0.804
80 | chain 1 D31T Y32G | 0.0391 µM | 0.798
81 | chain 1 D31I Y32F | ≥ 10 µM | 0.369
82 | chain 1 S30M M34L | 0.00299 µM | 0.94
83 | chain 1 D106W G109K | ≥ 10 µM | 0.167
84 | chain 1 S30P M34F | 0.00184 µM | 1.2
85 | chain 1 D31A W36H | ≥ 10 µM | 0.137
86 | chain 1 D31W W33L N35I | ≥ 10 µM | 0.49
87 | chain 1 S101Q D106N | ≥ 10 µM | 0.555
88 | chain 1 S30A W36H | ≥ 10 µM | 0.457
89 | chain 1 S101G Y107K | ≥ 10 µM | 0.907
90 | chain 1 F29P W36E | ≥ 10 µM | 0.482
91 | chain 1 D31G V37N | 0.00785 µM | 0.512
92 | chain 1 F29E M34E | ≥ 10 µM | 0.455
93 | chain 1 F29I N35I | ≥ 10 µM | 0.383
94 | chain 1 M34V W36N | ≥ 10 µM | 0.502
95 | chain 1 S30F N35T W36P | ≥ 10 µM | 1.41
96 | chain 1 G100I Y107P | ≥ 10 µM | 0.276
97 | chain 1 G104Q D106K | ≥ 10 µM | 0.274

Row | Variant | Kd [1] | yeast surface expression [2]
98 | chain 1 G100D M105Y | ≥ 10 µM | 0.228
99 | chain 1 F29R | ≥ 10 µM | 0.758
100 | chain 1 F29P | 0.0318 µM | 1.05
101 | chain 1 G109N | ≥ 10 µM | 0.622
102 | chain 1 G100C D106Q | ≥ 10 µM | 0.754
103 | chain 1 S101K Y107V | ≥ 10 µM | 0.507
104 | chain 1 F29N S30P M34H | ≥ 10 µM | 0.781
105 | chain 1 D31R Y32K V37Y | ≥ 10 µM | 1.3
106 | chain 1 S101M Y103G | ≥ 10 µM | 0.868
107 | chain 1 G104T Y107I W108Y | ≥ 10 µM | 0.224
108 | chain 1 G100L G109R | ≥ 10 µM | 0.268
109 | chain 1 G104F W108R | 0.02 µM | 0.146
110 | chain 1 G100I G104W | ≥ 10 µM | 0.449
111 | chain 1 G104V Y107I | ≥ 10 µM | 0.443
112 | chain 1 F29R V37P | ≥ 10 µM | 0.289
113 | chain 1 F29R V37S | ≥ 10 µM | 0.385
114 | chain 1 M105P G109T | ≥ 10 µM | 0.291
115 | chain 1 G104E W108S | ≥ 10 µM | 0.331
116 | chain 1 S30Q D31H Y32N | ≥ 10 µM | 0.857
